Test results taken from paper PMC10484734, “TLK1-mediated RAD54 phosphorylation spatio-temporally regulates Homologous Recombination Repair” (Nucleic Acids Research, 2023).

Columns and labels:
RAD54-T700D, recombinant = biological target: T1, RAD54-T700D, recombinant (human, UniProt Q92698 1-747, T700D); experiment: pull-down; purified RAD54 forms with RAD51; reactions eluted from beads, eluate and supernatant on silver-stained gels, quantified; which protein was held on the beads is not told; details: both partners purified
T1 construct: human RAD54 (RAD54L) with the phosphomimic change T700D; also called purified RAD54-T700D; CTD mutant; source: recombinant, purified
T1 sequence (looked up): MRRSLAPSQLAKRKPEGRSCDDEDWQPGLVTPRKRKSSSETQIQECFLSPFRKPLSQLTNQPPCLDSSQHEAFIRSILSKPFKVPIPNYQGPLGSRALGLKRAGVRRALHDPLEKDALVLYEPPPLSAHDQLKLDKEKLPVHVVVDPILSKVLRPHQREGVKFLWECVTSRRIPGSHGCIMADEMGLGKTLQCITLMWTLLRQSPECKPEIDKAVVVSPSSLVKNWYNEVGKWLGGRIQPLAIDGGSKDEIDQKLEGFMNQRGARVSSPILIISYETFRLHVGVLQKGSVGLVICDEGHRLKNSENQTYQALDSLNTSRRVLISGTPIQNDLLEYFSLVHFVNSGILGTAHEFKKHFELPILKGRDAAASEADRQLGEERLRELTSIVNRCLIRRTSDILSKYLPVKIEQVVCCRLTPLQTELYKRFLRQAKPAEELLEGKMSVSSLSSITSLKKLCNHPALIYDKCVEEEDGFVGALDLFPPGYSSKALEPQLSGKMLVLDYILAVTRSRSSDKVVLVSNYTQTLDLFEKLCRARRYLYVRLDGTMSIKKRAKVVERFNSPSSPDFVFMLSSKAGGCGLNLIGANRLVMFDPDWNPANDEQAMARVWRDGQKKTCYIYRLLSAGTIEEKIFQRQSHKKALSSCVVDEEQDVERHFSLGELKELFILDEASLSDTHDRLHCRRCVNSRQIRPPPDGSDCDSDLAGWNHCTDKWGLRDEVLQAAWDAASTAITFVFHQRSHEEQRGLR

[1] = biological target: T2, RAD54-T41, T59D (RAD54-T2D), recombinant (human, UniProt Q92698 1-747, T41D | T59D); experiment: as above; details: both partners purified
T2 construct: human RAD54 (RAD54L) with the phosphomimic changes T41D and T59D; also called NTD phosphomimic; source: recombinant, purified
T2 sequence (looked up): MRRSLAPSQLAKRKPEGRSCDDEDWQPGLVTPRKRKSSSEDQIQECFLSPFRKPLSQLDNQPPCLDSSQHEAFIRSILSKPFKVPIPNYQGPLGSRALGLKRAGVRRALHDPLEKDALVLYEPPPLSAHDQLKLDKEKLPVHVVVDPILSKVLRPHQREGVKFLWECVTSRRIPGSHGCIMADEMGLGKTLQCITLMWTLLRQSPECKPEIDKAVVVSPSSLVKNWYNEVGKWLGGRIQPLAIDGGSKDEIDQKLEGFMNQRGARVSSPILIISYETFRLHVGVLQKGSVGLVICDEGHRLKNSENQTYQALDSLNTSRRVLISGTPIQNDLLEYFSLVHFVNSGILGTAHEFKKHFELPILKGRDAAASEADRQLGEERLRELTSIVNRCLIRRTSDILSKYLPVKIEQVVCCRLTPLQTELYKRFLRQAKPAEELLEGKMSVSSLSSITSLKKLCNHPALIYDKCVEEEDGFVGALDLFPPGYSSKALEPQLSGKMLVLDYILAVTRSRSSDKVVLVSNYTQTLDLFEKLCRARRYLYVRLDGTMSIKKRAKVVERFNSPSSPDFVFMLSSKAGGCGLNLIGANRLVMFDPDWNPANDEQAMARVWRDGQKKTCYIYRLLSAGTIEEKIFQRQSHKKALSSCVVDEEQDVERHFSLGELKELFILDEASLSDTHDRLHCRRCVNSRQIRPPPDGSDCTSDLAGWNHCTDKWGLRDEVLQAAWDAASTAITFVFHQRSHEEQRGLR

binding result (RAD54-T700D, recombinant): binds
binding result [1]: binds
B1: recombinant human RAD51 (natural protein, UniProt Q06609 1-339, looked up)
chain: MAMQMQLEANADTSVEEESFGPQPISRLEQCGINANDVKKLEEAGFHTVEAVAYAPKKELINIKGISEAKADKILAEAAKLVPMGFTTATEFHQRRSEIIQITTGSKELDKLLQGGIETGSITEMFGEFRTGKTQICHTLAVTCQLPIDRGGGEGKAMYIDTEGTFRPERLLAVAERYGLSGSDVLDNVAYARAFNTDHQTQLLYQASAMMVESRYALLIVDSATALYRTDYSGRGELSARQMHLARFLRMLLRLADEFGVAVVITNQVVAQVDGAAMFAADPKKPIGGNIIAHASTTRLYLRKGRGETRICKIYDSPCLPEAEAMFAINADGVGDAKD
notes: human RAD51 recombinase; also called rc-RAD51
